Where no end group is shown, it is not given here. The star is where a group is joined. FITC = O=C1OC2(c3ccc(O)cc3Oc3cc(O)ccc32)c2ccc(NC(=S)*)cc21; βAla = NCCC(=O)O
B1: wild-type MLL TAD peptide used as inhibitor in fluorescence polarization (peptide)
chain: GNILPSDIMDFVLKNTPSMQALGESPESY
notes: MLL TAD, residues 2842-2869 of human MLL; Tyr residue attached at the C-terminus for concentration determination by UV absorption; also called wild-type peptide; WT; source: E. coli BL21(DE3), purified (Ni-NTA)
B2: designed T2857W peptide used as inhibitor in fluorescence polarization (peptide)
chain: GNILPSDIMDFVLKNWPSMQALGESPESY
notes: MLL TAD, residues 2842-2869 of human MLL, with the substitution; Tyr residue attached at the C-terminus for concentration determination by UV absorption; also called designed peptide; source: E. coli BL21(DE3), purified (Ni-NTA)
B3: His-tag–GB1–MLL TAD (wild type) (peptide)
chain: GNILPSDIMDFVLKNTPSMQALGESPESY
notes: MLL TAD, residues 2842-2869 of human MLL; Tyr residue attached at the C-terminus for concentration determination by UV absorption; Used in ITC and immobilised in SPR; also called wild-type MLL TAD; WT; source: E. coli BL21(DE3), purified (Ni-NTA); not shown: His6, N-terminal, kept
B4: His-tag–GB1–MLL TAD K2855R/T2857L (peptide)
chain: GNILPSDIMDFVLRNLPSMQALGESPESY
notes: MLL TAD, residues 2842-2869 of human MLL, with the substitutions; Tyr residue attached at the C-terminus for concentration determination by UV absorption; also called K2855R/T2857L double mutant; source: E. coli BL21(DE3), purified (Ni-NTA); not shown: His6, N-terminal, kept
B5: His-tag–GB1–MLL TAD T2857L (peptide)
chain: GNILPSDIMDFVLKNLPSMQALGESPESY
notes: MLL TAD, residues 2842-2869 of human MLL, with the substitution; Tyr residue attached at the C-terminus for concentration determination by UV absorption; source: E. coli BL21(DE3), purified (Ni-NTA); not shown: His6, N-terminal, kept
B6: His-tag–GB1–MLL TAD T2857R (peptide)
chain: GNILPSDIMDFVLKNRPSMQALGESPESY
notes: as for B5
B7: His-tag–GB1–MLL TAD T2857W (peptide)
chain: GNILPSDIMDFVLKNWPSMQALGESPESY
notes: MLL TAD, residues 2842-2869 of human MLL, with the substitution; Tyr residue attached at the C-terminus for concentration determination by UV absorption; Used in ITC; also called designed T2857W peptide; T2857W mutant of the MLL TAD peptide; source: E. coli BL21(DE3), purified (Ni-NTA); not shown: His6, N-terminal, kept
B8: His-tag–GB1–MLL TAD T2857A (peptide)
chain: GNILPSDIMDFVLKNAPSMQALGESPESY
notes: as for B5
B9: His-tag–GB1–MLL TAD T2857K (peptide)
chain: GNILPSDIMDFVLKNKPSMQALGESPESY
notes: as for B5
B10: His-tag–GB1–MLL TAD K2855R/T2857W (peptide)
chain: GNILPSDIMDFVLRNWPSMQALGESPESY
notes: MLL TAD, residues 2842-2869 of human MLL, with the substitutions; Tyr residue attached at the C-terminus for concentration determination by UV absorption; also called K2855R/T2857W double mutant; source: E. coli BL21(DE3), purified (Ni-NTA); not shown: His6, N-terminal, kept
B11: MLL TAD peptide I2849L without His-tag–GB1 (peptide)
chain: GNILPSDLMDFVLKNTPSMQALGESPESY
notes: MLL TAD, residues 2842-2869 of human MLL, with the substitution; Tyr residue attached at the C-terminus for concentration determination by UV absorption; One of the four mutants used without His-tag–GB1 in ITC as well as in CD; source: E. coli BL21(DE3), purified (Ni-NTA, thrombin digestion on the column, anion exchange); not shown: His6, N-terminal, cleaved
B12: His-tag–GB1–MLL TAD T2857F (peptide)
chain: GNILPSDIMDFVLKNFPSMQALGESPESY
notes: as for B5
B13: His-tag–GB1–MLL TAD T2857Y (peptide)
chain: GNILPSDIMDFVLKNYPSMQALGESPESY
notes: as for B5
B14: MLL TAD peptide K2855R without His-tag–GB1 (peptide)
chain: GNILPSDIMDFVLRNTPSMQALGESPESY
notes: as for B11
B15: MLL TAD peptide D2851L without His-tag–GB1 (peptide)
chain: GNILPSDIMLFVLKNTPSMQALGESPESY
notes: as for B11
B16: MLL TAD peptide T2857I without His-tag–GB1 (peptide)
chain: GNILPSDIMDFVLKNIPSMQALGESPESY
notes: as for B11
B17: FITC-labeled c-Myb TAD peptide (peptide)
peptide: {FITC-βAla}-GYNDEDPEKEKRIKELELLLMSTENELKGQQAL
notes: first residue of the printed peptide; as far as I recall not a residue of c-Myb at this position; c-Myb TAD; 33 residues as printed; also called FITC-Myb; source: synthetic peptide, bought: Biologica Co

target: T1, KIX domain of CREB-binding protein (residues 586–672 of mouse CBP) (mouse, UniProt P45481 586-672); experiment: fluorescence polarisation; competition: inhibitor (0–200 μM) titrated into a mixture of KIX (2 μM) and FITC-MLL (25 nM); 30 °C; 20 mM sodium phosphate pH 7.0, 100 mM NaCl, 0.005% Tween 20; conditions: both partners purified
T1 construct: KIX domain, residues 586-672 of mouse CBP; 6xHis-tag and thrombin cleavage site at the N-terminus; source: E. coli BL21(DE3)pLysS, purified (Ni-NTA, gel filtration on Superdex 200 pg)
T1 sequence (P45481 586-672): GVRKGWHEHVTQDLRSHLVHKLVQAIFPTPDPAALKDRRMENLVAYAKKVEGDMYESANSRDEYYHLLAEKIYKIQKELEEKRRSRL

| Binder | IC50 |
| --- | --- |
| B1 | 7100 nM |
| B2 | 3480 nM |

target: T1, KIX domain of CREB-binding protein …; experiment: ITC; 600 μM MLL solution titrated into the cell containing 45 µM KIX; 30 °C; 20 mM Tris–acetate pH 7.0, 50 mM NaCl; one-site binding model; conditions: both partners purified

| Binder | Kd | dH | stoichiometry N |
| --- | --- | --- | --- |
| B3 | 2020 nM | -13.1 kcal/mol | 1.02 |
| B4 | 1720 nM | -9.5 kcal/mol | 1.09 |
| B5 | 1900 nM | -10.5 kcal/mol | 1.05 |
| B6 | 3000 nM | -12.6 kcal/mol | 1.03 |
| B7 | 950 nM | -12.8 kcal/mol | 1.02 |
| B8 | 2620 nM | -11.8 kcal/mol | 1.03 |
| B9 | 4900 nM | -11.7 kcal/mol | 1.02 |
| B10 | 1040 nM | -12.2 kcal/mol | 1.04 |
| B11 | 2800 nM | -12.3 kcal/mol | 0.947 |
| B12 | 2100 nM | -11.1 kcal/mol | 1.07 |
| B13 | 2280 nM | -12.3 kcal/mol | 1.02 |
| B14 | 1500 nM | -13.8 kcal/mol | 0.94 |
| B15 | 4800 nM | -8.8 kcal/mol | 1.02 |
| B16 | 2400 nM | -10 kcal/mol | 1.04 |

target: T1, KIX domain of CREB-binding protein …; experiment: fluorescence polarisation; competition: inhibitor (0–200 μM) titrated into a mixture of KIX (2 μM) and FITC-Myb (25 nM); 30 °C; 20 mM sodium phosphate pH 7.0, 100 mM NaCl, 0.005% Tween 20; conditions: both partners purified

| Binder | IC50 |
| --- | --- |
| B1 | 36000 nM |
| B2 | 16000 nM |

target: T1, KIX domain of CREB-binding protein …; experiment: SPR; competition: mixture of KIX (5 μM) and inhibitor (0.27–200 μM) injected over immobilised His-tag–GB1–MLL TAD; 30 °C; 20 mM sodium phosphate pH 7.0, 100 mM NaCl, 0.05% Tween 20; conditions: both partners purified

| Binder | IC50 |
| --- | --- |
| B3 | 10400 nM |
| B7 | 5670 nM |

target: T1, KIX domain of CREB-binding protein …; experiment: fluorescence polarisation; 0–100 μM KIX titrated into 25 nM FITC-labeled peptide; 30 °C; 20 mM sodium phosphate pH 7.0, 100 mM NaCl, 0.005% Tween 20; conditions: both partners purified

| Binder | binding result |
| --- | --- |
| B17 | binds |

target: T1, KIX domain of CREB-binding protein …; experiment: SPR; His-tag–GB1–MLL TAD immobilised on CM5 by amine coupling (77.9 RU); KIX 0.04–30 μM injected; 30 °C; 20 mM sodium phosphate pH 7.0, 100 mM NaCl, 0.05% Tween 20; equilibrium analysis; conditions: both partners purified

| Binder | Kd |
| --- | --- |
| B3 | 4940 nM |

— paper PMC10113271, “Rational peptide design for inhibition of the KIX–MLL interaction” (Scientific Reports, 2023)
